Measurements published in article PMC6179962, “POLE3-POLE4 Is a Histone H3-H4 Chaperone that Maintains Chromatin Integrity during DNA Replication” (Molecular Cell, 2018).
Blank lines part the entries; values can stand above or below the molecule they belong to.

Columns and labels:
[1] = molecular target: tagged POLE3-POLE4 complex (GST-Pole4/His-POLE3) (human) (UniProt Q9NR33); test: pull-down; as a2 but 300 mM NaCl
[2] = molecular target: T1, GST-tagged POLE3 (human, UniProt Q9NRF9 1-147); test: pull-down; GST-tagged POLE3 or POLE4 (WT or mutant) on glutathione beads with His-tagged POLE4 or POLE3; 150 mM and 1 M NaCl (Figures S1A, S1B); salt of Figure 1C not told; settings: both partners purified
T1 construct: DNA polymerase epsilon subunit POLE3, human, full length; cloned in pGEX 6P-1; also called GST-POLE3; source: E. coli BL21(DE3) pLysS, purified (glutathione-Sepharose 4B)
T1 sequence (looked up): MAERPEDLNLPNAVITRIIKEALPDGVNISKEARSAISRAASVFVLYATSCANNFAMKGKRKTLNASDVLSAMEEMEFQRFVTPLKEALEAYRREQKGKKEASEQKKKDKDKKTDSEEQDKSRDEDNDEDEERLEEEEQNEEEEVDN

[3] = molecular target: T2, His-tagged POLE3 (human, UniProt Q9NRF9 1-147); test: as above; settings: both partners purified
T2 construct: DNA polymerase epsilon subunit POLE3, human; cloned via Gateway into pDEST17; also called His-POLE3; source: E. coli BL21(DE3) pLysS, purified (Ni-NTA)
T2 sequence (looked up): T1 sequence (looked up)

- percent of the interaction at 150 mM NaCl [1]: 50%
Molecule: purified H3-H4 histones (H3.3 variant) (from UniProt P84243 1-136; P62805 1-103) (complex)

- binding result [2]: binds
B1: His-tagged POLE4 (natural protein, human, UniProt Q9NR33 1-117, looked up)
chain: MAAAAAAGSGTPREEEGPAGEAAASQPQAPTSVPGARLSRLPLARVKALVKADPDVTLAGQEAIFILARAAELFVETIAKDAYCCAQQGKRKTLQRRDLDNAIEAVDEFAFLEGTLD
notes: DNA polymerase epsilon subunit POLE4, human; cloned via Gateway into pDEST17; also called His-POLE4; source: E. coli BL21(DE3) pLysS, purified (Ni-NTA)

- binding result [3]: binds
B2: GST-tagged POLE4 (natural protein, human, UniProt Q9NR33 1-117, looked up)
chain: B1 chain
notes: DNA polymerase epsilon subunit POLE4, human, full length; cloned in pGEX 6P-1; also called GST-POLE4; source: E. coli BL21(DE3) pLysS, purified (glutathione-Sepharose 4B)
